# Results reported in article PMC6769508, “Cooperative Binding of KaiB to the KaiC Hexamer Ensures Accurate Circadian Clock Oscillation in Cyanobacteria” (International Journal of Molecular Sciences, 2019).
# Where “and” joins values, the source holds several entries; their conditions need not be identical. Equal values may be shown once.
# B1: TeKaiCDD, T. elongatus KaiC mutant with Ser431 and Thr432 substituted by aspartate residues (natural protein, Thermosynechococcus elongatus, UniProt Q79V60 1-518, looked up)
# chain: MTNLPEHQSSPTEQSSAEVKKIPTMIEGFDDISHGGLPQGRTTLVSGTSGTGKTLFAVQFLYNGITIFNEPGIFVTFEESPQDIIKNALSFGWNLQSLIDQGKLFILDASPDPDGQEVAGDFDLSALIERIQYAIRKYKATRVSIDSVTAVFQQYDAASVVRREIFRLAFRLKQLGVTTIMTTERVDEYGPVARFGVEEFVSDNVVILRNVLEGERRRRTVEILKLRGTTHMKGEYPFTINNGINIFPLGAMRLTQRSSNVRVSSGVKTLDEMCGGGFFKDSIILATGATGTGKTLLVSKFLETGCQQGERALLFAYEESRAQLSRNASSWGIDFEELERRGLLRIICAYPESAGLEDHLQIIKSEIADFKPSRVAIDSLSALARGVSNNAFRQFVIGVTGFAKQEEITGFFTNTTDQFMGSNSITESHIDDITDTILLLQYVEIRGEMSRAINVFKMRGSWHDKGIREYVITEKGAEIRDSFRNFEGIISGTPTRISVDEKTELARIAKGMQDLESE
# notes: KaiC, Thermosynechococcus elongatus (strain BP-1), Ser431 and Thr432 substituted by aspartate (mimics the fully phosphorylated form); Seen as a homohexamer by native MS; also called TeKaiCDD homohexamer; source: E. coli, GST-tagged, purified after cleavage of the GST-tag
# Columns and labels:
# [1] = target: B1; experiment: native MS; TeKaiCDD (20 µM) titrated with KaiB or SasA proteins, incubated at 37 °C for 6 h, buffer-exchanged into 150 mM ammonium acetate, pH 6.8; nanoflow ESI; conditions: both partners purified
# [2] = target: the molecule itself; experiment: as above
# [3] = target: the molecule itself; experiment: SEC; Superdex 200 increase; 20 mM Tris-HCl (pH 8.0), 150 mM NaCl, 5 mM MgCl2, 0.5 mM EDTA, 1 mM DTT; TeKaiB or TeKaiBDD in the absence of KaiC
Binder,stoichiometry N [1],stoichiometry N [3],further results
"TeKaiB_(10–108), N-terminal truncated mutant of T. elongatus KaiB (domain or fragment, Thermosynechococcus elongatus, UniProt Q79V61 10-108, looked up, KaiB, Thermosynechococcus elongatus (strain BP-1), residues 10-108 (N-terminal segment deleted); source: E. coli, GST-tagged, purified after cleavage of the GST-tag) LKLYVAGNTPNSVRALKTLNNILEKEFKGVYALKVIDVLKNPQLAEEDKILATPTLAKVLPPPVRRIIGDLSNREKVLIGLDLLYEEIGDQAEDDLGLE",6 binder chains per KaiC hexamer,–,–
"TeKaiB_(10–108/DD), TeKaiB_(10–108) with Arg23 and Lys26 replaced with aspartate (domain or fragment, Thermosynechococcus elongatus, UniProt Q79V61 10-108, looked up, KaiB, Thermosynechococcus elongatus (strain BP-1), residues 10-108, Arg23 and Lys26 substituted with aspartate; source: E. coli, GST-tagged, purified after cleavage of the GST-tag) LKLYVAGNTPNSVDALDTLNNILEKEFKGVYALKVIDVLKNPQLAEEDKILATPTLAKVLPPPVRRIIGDLSNREKVLIGLDLLYEEIGDQAEDDLGLE",1 binder chains per KaiC hexamer and 3 binder chains per KaiC hexamer and 2 binder chains per KaiC hexamer,–,–
B1,–,–,stoichiometry N [2]: 6
"TeKaiB, wild-type T. elongatus KaiB (natural protein, Thermosynechococcus elongatus, UniProt Q79V61 1-108, looked up, KaiB, Thermosynechococcus elongatus (strain BP-1), wild type; source: E. coli, GST-tagged, purified after cleavage of the GST-tag) MAPLRKTYVLKLYVAGNTPNSVRALKTLNNILEKEFKGVYALKVIDVLKNPQLAEEDKILATPTLAKVLPPPVRRIIGDLSNREKVLIGLDLLYEEIGDQAEDDLGLE",–,4,–
"TeKaiBDD, TeKaiB with the DD mutation (Arg23 and Lys26 to aspartate) (natural protein, Thermosynechococcus elongatus, UniProt Q79V61 1-108, looked up, KaiB, Thermosynechococcus elongatus (strain BP-1), Arg23 and Lys26 substituted with aspartate; Named only in the SEC methods; source: E. coli, GST-tagged, purified after cleavage of the GST-tag) MAPLRKTYVLKLYVAGNTPNSVDALDTLNNILEKEFKGVYALKVIDVLKNPQLAEEDKILATPTLAKVLPPPVRRIIGDLSNREKVLIGLDLLYEEIGDQAEDDLGLE",–,4,–
